{
  "source": "patent US20060263349A1",
  "molecular_target": "human CD20 on WIL2-S B lymphoblast cells (human) (UniProt P11836)",
  "sequence (P11836 whole entry)": "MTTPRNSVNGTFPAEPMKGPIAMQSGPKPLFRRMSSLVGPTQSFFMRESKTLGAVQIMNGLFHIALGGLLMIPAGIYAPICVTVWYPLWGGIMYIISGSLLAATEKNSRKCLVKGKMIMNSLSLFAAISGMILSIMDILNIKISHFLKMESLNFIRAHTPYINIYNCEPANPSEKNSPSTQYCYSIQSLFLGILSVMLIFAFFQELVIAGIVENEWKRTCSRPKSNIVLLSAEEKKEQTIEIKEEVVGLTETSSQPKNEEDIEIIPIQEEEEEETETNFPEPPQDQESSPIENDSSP",
  "assay": "cell-based or functional assay",
  "data": [
    {"substance": "Rituximab (antibody)", "values": [
      {"measurement": "CDC activity above background cell lysis at 0.4 µg/mL Rituximab", "value": "25 to 30", "unit": "%"},
      {"measurement": "Rituximab concentration at maximal cell lysis (CDC, WIL2-S cells, … GLO)", "value": 5, "unit": "µg/mL"},
      {"measurement": "percentage of live cells remaining at 1 µg/mL Rituximab (control)", "value": 40, "unit": "%"}
    ]}
  ]
}
